Laboratory results taken from patent US20140031234A1 (published 2014).

Biological target: the molecule itself
Experiment: Sephacryl S100 gel filtration; self-association

B1: Strep-tagged Δ513 of NPR1 (other)
chain: AVLDQIMNCEDLTQLACGEDDTAEKRLQKKQRYMEIQETLKKAFSEDNLELGNSSLTDSTSSTSKSTGGKRSNRKLSHRRR
notes: E. coli-produced; used in S100 gel filtration; not shown: N-terminal Strep-Tag (and any vector linker)
B1: binds.
